This is an account of results in paper PMC2156174.

The target of the assay is endogenous Tom40 (N. crassa (endogenous in isolated mitochondria)) (UniProt P24391). As to the kind of experiment: cross-linking.

For orientation: stoichiometry N means the number of molecules, sites or subunits per partner or assembly. “endogenous Tom40 (from UniProt P24391 1-349) (natural protein)” gave a stoichiometry N of 2.
